# Measurements from PMC9248843, “Structural and biophysical studies of new L-asparaginase variants: lessons from random mutagenesis of the prototypic Escherichia coli Ntn-amidohydrolase” (Acta Crystallographica. Section D, Structural Biology, 2022).
# Positions count from the first letter of the chain named.
# T1: EcAIII α subunit (∼20 kDa) (Escherichia coli, UniProt P37595 1-178)
# T1 construct: EcAIII of Escherichia coli, α subunit: cut product of the precursor up to the scissile bond Gly178-Thr179; the linker is partly degraded, residues 158-178 are not visible in the structures; also called subunit α; source: E. coli BL21 Gold, purified (DEAE-Sepharose, SEC); formed by autocleavage of the precursor
# T1 sequence (looked up): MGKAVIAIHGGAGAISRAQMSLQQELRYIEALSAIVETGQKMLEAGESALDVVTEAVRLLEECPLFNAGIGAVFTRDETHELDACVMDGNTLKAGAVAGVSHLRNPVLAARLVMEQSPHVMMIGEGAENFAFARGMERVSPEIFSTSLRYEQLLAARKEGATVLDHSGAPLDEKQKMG
# B1: EcAIII β subunit (∼15 kDa), wild type (domain or fragment, Escherichia coli, UniProt P37595 179-321, looked up)
# chain: TVGAVALDLDGNLAAATSTGGMTNKLPGRVGDSPLVGAGCYANNASVAVSCTGTGEVFIRALAAYDIAALMDYGGLSLAEACERVVMEKLPALGGSGGLIAIDHEGNVALPFNTEGMYRAWGYAGDTPTTGIYREKGDTVATQ
# notes: EcAIII of Escherichia coli, β subunit: cut product of the precursor beginning at the nucleophilic Thr179; also called subunit β; source: E. coli BL21 Gold, purified (DEAE-Sepharose, SEC); formed by autocleavage of the precursor
# B2: EcAIII β subunit of variant RDM1-3 (domain or fragment, Escherichia coli, UniProt P37595 179-321, looked up)
# chain: B1 chain with G28H, R29T, D32P, S33Q
# notes: EcAIII of Escherichia coli, β subunit beginning at Thr179, with the substitutions of RDM1-3; also called RDM1-3 β subunit; source: E. coli BL21 Gold, purified (DEAE-Sepharose, SEC); formed by autocleavage of the precursor
# B3: EcAIII β subunit of variant RDM1-12 (domain or fragment, Escherichia coli, UniProt P37595 179-321, looked up)
# chain: B1 chain with G28C, R29T, D32A, S33A
# notes: EcAIII of Escherichia coli, β subunit beginning at Thr179, with the substitutions of RDM1-12; also called RDM1-12 β subunit; source: E. coli BL21 Gold, purified (DEAE-Sepharose, SEC); formed by autocleavage of the precursor
# B4: EcAIII β subunit of variant RDM1-29 (domain or fragment, Escherichia coli, UniProt P37595 179-321, looked up)
# chain: B1 chain with G28C, R29S, D32L, S33V
# notes: EcAIII of Escherichia coli, β subunit beginning at Thr179, with the substitutions of RDM1-29; also called RDM1-29 β subunit; source: E. coli BL21 Gold, purified (DEAE-Sepharose, SEC); formed by autocleavage of the precursor
# B5: EcAIII β subunit of variant RDM1-18 (domain or fragment, Escherichia coli, UniProt P37595 179-321, looked up)
# chain: B1 chain with R29V, D32P, S33W
# notes: also called RDM1-18 β subunit; source: E. coli BL21 Gold, purified (DEAE-Sepharose, SEC); formed by autocleavage of the precursor
# B6: EcAIII β subunit of variant RDM1-38 (domain or fragment, Escherichia coli, UniProt P37595 179-321, looked up)
# chain: B1 chain with R29C, D32S, S33V
# notes: EcAIII of Escherichia coli, β subunit beginning at Thr179, with the substitutions of RDM1-38; also called RDM1-38 β subunit; source: E. coli BL21 Gold, purified (DEAE-Sepharose, SEC); formed by autocleavage of the precursor
# B7: EcAIII β subunit of variant RDM1-37 (domain or fragment, Escherichia coli, UniProt P37595 179-321, looked up)
# chain: B1 chain with G28S, R29T, D32S
# notes: EcAIII of Escherichia coli, β subunit beginning at Thr179, with the substitutions of RDM1-37 (Ser211 kept); also called RDM1-37 β subunit; source: E. coli BL21 Gold, purified (DEAE-Sepharose, SEC); formed by autocleavage of the precursor
# B8: EcAIII β subunit of variant RDM1-24 (domain or fragment, Escherichia coli, UniProt P37595 179-321, looked up)
# chain: B1 chain with R29A, D32S, S33T
# notes: EcAIII of Escherichia coli, β subunit beginning at Thr179, with the substitutions of RDM1-24; also called RDM1-24 β subunit; source: E. coli BL21 Gold, purified (DEAE-Sepharose, SEC); formed by autocleavage of the precursor
# B9: wild-type EcAIII, mature (αβ)2 heterotetramer (class 2 L-asparaginase of Escherichia coli) (complex)
# chain 1: T1 sequence (looked up)
# chain 2: B1 chain
# notes: EcAIII of Escherichia coli, α subunit: cut product of the precursor up to the scissile bond Gly178-Thr179; the linker is partly degraded, residues 158-178 are not visible in the structures; EcAIII of Escherichia coli, β subunit: cut product of the precursor beginning at the nucleophilic Thr179; Gene in pET-11d; no tag is mentioned; Dimer of two αβ heterodimers formed by autocleavage of the …
# B10: EcAIII variant RDM1-18, mature (processed into α/β subunits) (complex, Escherichia coli)
# chain 1: T1 sequence (looked up)
# chain 2: B1 chain with R29V, D32P, S33W
# notes: EcAIII of Escherichia coli, α subunit: cut product up to the scissile bond Gly178-Thr179; residues 158-178 not visible in the structure; source: E. coli BL21 Gold, purified (DEAE-Sepharose, SEC); copies: 2 + 2
# B11: EcAIII variant RDM1-12, mature (processed into α/β subunits) (complex, Escherichia coli)
# chain 1: T1 sequence (looked up)
# chain 2: B1 chain with G28C, R29T, D32A, S33A
# notes: EcAIII of Escherichia coli, α subunit: cut product up to the scissile bond Gly178-Thr179; residues 158-178 not visible in the structure; EcAIII of Escherichia coli, β subunit beginning at Thr179, with the substitutions of RDM1-12; source: E. coli BL21 Gold, purified (DEAE-Sepharose, SEC); copies: 2 + 2
# B12: EcAIII variant RDM1-24, mature (processed into α/β subunits) (complex, Escherichia coli)
# chain 1: T1 sequence (looked up)
# chain 2: B1 chain with R29A, D32S, S33T
# notes: EcAIII of Escherichia coli, α subunit: cut product up to the scissile bond Gly178-Thr179; residues 158-178 not visible in the structure; EcAIII of Escherichia coli, β subunit beginning at Thr179, with the substitutions of RDM1-24; source: E. coli BL21 Gold, purified (DEAE-Sepharose, SEC); copies: 2 + 2
# B13: EcAIII variant RDM1-37, mature (processed into α/β subunits) (complex, Escherichia coli)
# chain 1: T1 sequence (looked up)
# chain 2: B1 chain with G28S, R29T, D32S
# notes: EcAIII of Escherichia coli, α subunit: cut product up to the scissile bond Gly178-Thr179; residues 158-178 not visible in the structure; EcAIII of Escherichia coli, β subunit beginning at Thr179, with the substitutions of RDM1-37 (Ser211 kept); source: E. coli BL21 Gold, purified (DEAE-Sepharose, SEC); copies: 2 + 2
# B14: EcAIII variant RDM1-38, mature (processed into α/β subunits) (complex, Escherichia coli)
# chain 1: T1 sequence (looked up)
# chain 2: B1 chain with R29C, D32S, S33V
# notes: EcAIII of Escherichia coli, α subunit: cut product up to the scissile bond Gly178-Thr179; residues 158-178 not visible in the structure; EcAIII of Escherichia coli, β subunit beginning at Thr179, with the substitutions of RDM1-38; source: E. coli BL21 Gold, purified (DEAE-Sepharose, SEC); copies: 2 + 2
# B15: EcAIII variant RDM1-29, mature (processed into α/β subunits) (complex, Escherichia coli)
# chain 1: T1 sequence (looked up)
# chain 2: B1 chain with G28C, R29S, D32L, S33V
# notes: EcAIII of Escherichia coli, α subunit: cut product up to the scissile bond Gly178-Thr179; residues 158-178 not visible in the structure; EcAIII of Escherichia coli, β subunit beginning at Thr179, with the substitutions of RDM1-29; source: E. coli BL21 Gold, purified (DEAE-Sepharose, SEC); copies: 2 + 2
# B16: EcAIII variant RDM1-3, mature (processed into α/β subunits) (complex, Escherichia coli)
# chain 1: T1 sequence (looked up)
# chain 2: B1 chain with G28H, R29T, D32P, S33Q
# notes: EcAIII of Escherichia coli, α subunit: cut product up to the scissile bond Gly178-Thr179; residues 158-178 not visible in the structure; EcAIII of Escherichia coli, β subunit beginning at Thr179, with the substitutions of RDM1-3; source: E. coli BL21 Gold, purified (DEAE-Sepharose, SEC); copies: 2 + 2
# B17: EcAIII variant RDM1-43, unprocessed immature precursor (enzyme, Escherichia coli, UniProt P37595 1-321, looked up)
# chain: MGKAVIAIHGGAGAISRAQMSLQQELRYIEALSAIVETGQKMLEAGESALDVVTEAVRLLEECPLFNAGIGAVFTRDETHELDACVMDGNTLKAGAVAGVSHLRNPVLAARLVMEQSPHVMMIGEGAENFAFARGMERVSPEIFSTSLRYEQLLAARKEGATVLDHSGAPLDEKQKMGTVGAVALDLDGNLAAATSTGGMTNKLPVGVGSSPLVGAGCYANNASVAVSCTGTGEVFIRALAAYDIAALMDYGGLSLAEACERVVMEKLPALGGSGGLIAIDHEGNVALPFNTEGMYRAWGYAGDTPTTGIYREKGDTVATQ
# notes: EcAIII of Escherichia coli, uncleaved immature precursor (α and β on one chain, linker intact), with the substitutions of RDM1-43 (Ser211 kept); No ability to process into α/β subunits; EcAIII gene in pET-11d; source: E. coli BL21 Gold, purified (DEAE-Sepharose, SEC)
# B18: EcAIII variant RDM1-46, unprocessed immature precursor (enzyme, Escherichia coli, UniProt P37595 1-321, looked up)
# chain: B17 chain with V206L, G207D, S210L
# notes: EcAIII of Escherichia coli, uncleaved immature precursor (α and β on one chain, linker intact), with the substitutions of RDM1-46 (Ser211 kept); No ability to process into α/β subunits; EcAIII gene in pET-11d; source: E. coli BL21 Gold, purified (DEAE-Sepharose, SEC)
# B19: EcAIII variant RDM1-64, unprocessed immature precursor (enzyme, Escherichia coli, UniProt P37595 1-321, looked up)
# chain: B17 chain with V206I, G207V, S210I, S211G
# notes: EcAIII of Escherichia coli, uncleaved immature precursor (α and β on one chain, linker intact), with the substitutions of RDM1-64; No ability to process into α/β subunits; EcAIII gene in pET-11d; source: E. coli BL21 Gold, purified (DEAE-Sepharose, SEC)
# Biological target: T1, EcAIII α subunit (∼20 kDa)
# Assay: crystal structure; hanging-drop vapor diffusion at 20°C; 20–30% PEG 4000 or PEG 6000, 0.2 M MgCl2, 100 mM Tris–HCl pH 8.5; protein 10–15 mg/ml; space group P212121
# Settings: both partners purified
row,binding result,Binder
1,binds,B1
2,binds,B2
3,binds,B3
4,binds,B4
5,binds,B5
6,binds,B6
7,binds,B7
8,binds,B8

# Biological target: the molecule itself
# Assay: as above
# Settings: not given
row,Binder,binding result
1,B9,binds
2,B10,binds
3,B11,binds
4,B12,binds
5,B13,binds
6,B14,binds
7,B15,binds
8,B16,binds

# Biological target: the molecule itself
# Assay: SEC; SEC profiles of Supplementary Fig. S4; before biophysical measurements proteins were run on Superdex 75 10/300 GL in 20 mM phosphate buffer pH 7.5
# Settings: not given
row,Binder,binding result
1,B17,binds
2,B18,binds
3,B19,binds
